Test results published in publication PMC10338859.

Assays:
[1] = system: PR20, poly(PR) dipeptide repeat peptide; assay: BLI; details: apparent Kd, 1:1 equilibrium fit; BLI: 10 mM Tris-HCl, 1 mM disodium EDTA, pH 8.0, 150 mM NaCl, 0.1 mg/ml BSA, 0.01% Tween-20, 25 C; RNA on streptavidin …
[2] = system: GR20, poly(GR) dipeptide repeat peptide; assay: BLI; details: apparent Kd, 1:1 equilibrium fit; BLI: 10 mM Tris-HCl, 1 mM disodium EDTA, pH 8.0, 150 mM NaCl, 0.1 mg/ml BSA, 0.01% Tween-20, 25 C; RNA on streptavidin …

Sequence | Kd [1] [nM] | Kd [2] [nM]
AUAAUAUAAUAUAAUAUAAUAUAAU [poly(AUAAU) RNA] | 11.1 | 6.1
GAGAAGAGAAGAGAAGAGAAGAGAA [poly(GAAGA) RNA] | 2.6 | 3.6
